This is an account of results in the supplement of paper PMC6757056.

First the molecules themselves.
B1: library; a variant is named by its letters at N, in order (parent)
chain: GCUGUCACCGGUGUAUUACCCUAGUGGUCGACCGGUCUGAUGAGUCUNNNNNNAGACGAAACAGC

± gives the standard deviation of the averaged measurements.

Series [1] covers variants of B1. The experiment in a line: FACS-Seq fitted mean relative fluorescence mCherry/BFP without ligand (log10 relative fluorescence); ligand: hypoxanthine (xanthine aptamer); higher = higher reporter protein expression. The following applies: HEK293T, ligand present: no. The method in brief: (§1)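 Fluorescence comes from a normal fit to bin counts, normalized against controls. HEK293T libraries lentivirally given a ribozyme-switch mCherry reporter and an EF1α-BFP marker were enriched, incubated 48 h with or without ligand, and sorted by mCherry/BFP into 6 bins. Bin genomic DNA was PCR-amplified, barcoded and sequenced on MiSeq. The log10(mCherry/BFP) mean was scaled to five spiked-in control ribozymes.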

The variants in series [2] derive from B1. In words: normalized RNA/DNA level with ligand (relative to sTRSVctl = 100) (log10 (% of sTRSVctl)); ligand: hypoxanthine (xanthine aptamer); higher = less ribozyme self-cleavage, higher mRNA level. The note with it: ligand concentration (+) RNA-Seq: 5 mM, HEK293T, reporter: mCherry (pCS4076), ligand present: yes. The method in brief: (§2)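 HEK293T cells received ligand, where used, 1 h before being transfected with 4 µg per 6-well well of library plasmids encoding reporter-linked ribozyme switches. After 72 h, RNA was extracted with EDTA and sequenced. RNA level was derived from RNA reads per DNA read, normalized to a spiked-in non-cleaving sequence or the top sequences, then scaled and log-transformed. Values were ×100 then log10, the top set was 25 sequences, and the minimum was 100 DNA reads.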

In series [3] the parent is B1. In words: normalized RNA/DNA level without ligand (relative to sTRSVctl = 100) (log10 (% of sTRSVctl)); ligand: hypoxanthine (xanthine aptamer); higher = less ribozyme self-cleavage, higher mRNA level. The following applies: HEK293T, reporter: mCherry (pCS4076), ligand present: no. The method in brief: as §2
In series [4] the parent is B1. The experiment in a line: FACS-Seq fitted mean relative fluorescence mCherry/BFP with ligand (log10 relative fluorescence); ligand: hypoxanthine (xanthine aptamer); ligand concentration (+) FACS-Seq: 5 mM; higher = higher reporter protein expression. The following applies: HEK293T, ligand present: yes. The method in brief:
as §1

For the variant GCUGUCACCGGUGUAUUACCCUAGUGGUCGACCGGUCUGAUGAGUCUGCGUGGAGACGAAACAGC [GCGUGG], the “FACS-Seq fitted mean (log10)” value in series [1] came to 0.196 ± 0.064; in series [4] it was 0.684 ± 0.047. For the same variant, in series [2], the “normalized RNA/DNA level with ligand (log10)” value was found to be 1.6355 ± 0.0011. Also, the “normalized RNA/DNA level without ligand (log10)” value in series [3] was determined as 1.13 ± 0.019.

GCUGUCACCGGUGUAUUACCCUAGUGGUCGACCGGUCUGAUGAGUCUGCGUGUAGACGAAACAGC [GCGUGU]: the “FACS-Seq fitted mean (log10)” value in series [1] worked out at 0.0904 ± 0.007; in series [4] it was 0.45 ± 0.049. Also, the “normalized RNA/DNA level with ligand (log10)” value in series [2] is 1.84 ± 0.049. In addition, in series [3], the “normalized RNA/DNA level without ligand (log10)” value was 1.42 ± 0.039.

As for GCUGUCACCGGUGUAUUACCCUAGUGGUCGACCGGUCUGAUGAGUCUACGUUGAGACGAAACAGC [ACGUUG], the “FACS-Seq fitted mean (log10)” value in series [1] was -0.189 ± 0.0052; in series [4] it was 0.488 ± 0.021. Besides, the “normalized RNA/DNA level with ligand (log10)” value in series [2] was found to be 1.79 ± 0.033. The “normalized RNA/DNA level without ligand (log10)” value in series [3] was 1.28 ± 0.019.

Turning to GCUGUCACCGGUGUAUUACCCUAGUGGUCGACCGGUCUGAUGAGUCUACUAAGAGACGAAACAGC [ACUAAG], the entries for the “FACS-Seq fitted mean (log10)” value in series [1] and in series [4] were -0.0198 ± 0.018 and 0.236 ± 0.15, respectively. The “normalized RNA/DNA level with ligand (log10)” value in series [2] was determined as 1.833 ± 0.017. In addition, the “normalized RNA/DNA level without ligand (log10)” value in series [3] is 1.5247 ± 0.0014.

Turning to GCUGUCACCGGUGUAUUACCCUAGUGGUCGACCGGUCUGAUGAGUCUACUAACAGACGAAACAGC [ACUAAC], the “FACS-Seq fitted mean (log10)” value in series [1] was -0.0807 ± 0.092; in series [4] it was 0.0498 ± 0.032. Moreover, the “normalized RNA/DNA level with ligand (log10)” value in series [2] came out at 1.95 ± 0.057. Moreover, in series [3], the “normalized RNA/DNA level without ligand (log10)” value is 1.8 ± 0.041.

Turning to GCUGUCACCGGUGUAUUACCCUAGUGGUCGACCGGUCUGAUGAGUCUACUAAAAGACGAAACAGC [ACUAAA], the “FACS-Seq fitted mean (log10)” value came to 0.324 ± 0.083 in series [1] and 0.54 ± 0.027 in series [4]. Besides, the “normalized RNA/DNA level with ligand (log10)” value in series [2] stood at 1.897 ± 0.0002. Also, in series [3], the “normalized RNA/DNA level without ligand (log10)” value was 1.76 ± 0.018.

On to GCUGUCACCGGUGUAUUACCCUAGUGGUCGACCGGUCUGAUGAGUCUACGUGUAGACGAAACAGC [ACGUGU], for which the entries for the “FACS-Seq fitted mean (log10)” value in series [1] and in series [4] were 0.135 ± 0.003 and 0.682 ± 0.074, respectively. In series [2], the “normalized RNA/DNA level with ligand (log10)” value worked out at 1.87 ± 0.047. The “normalized RNA/DNA level without ligand (log10)” value in series [3] stood at 1.4 ± 0.027.

Consider GCUGUCACCGGUGUAUUACCCUAGUGGUCGACCGGUCUGAUGAGUCUACGUGAAGACGAAACAGC [ACGUGA], for which the entries for the “FACS-Seq fitted mean (log10)” value in series [1] and in series [4] were -0.0934 ± 0.0088 and 0.256 ± 0.055, respectively. Besides, in series [2], the “normalized RNA/DNA level with ligand (log10)” value is 1.808 ± 0.01. In series [3], the “normalized RNA/DNA level without ligand (log10)” value came to 1.17 ± 0.023.

Take GCUGUCACCGGUGUAUUACCCUAGUGGUCGACCGGUCUGAUGAGUCUACGUGGAGACGAAACAGC [ACGUGG]: the “FACS-Seq fitted mean (log10)” value in series [1] was determined as 0.0467 ± 0.0087; in series [4] it was 0.697 ± 0.018. In addition, the “normalized RNA/DNA level with ligand (log10)” value in series [2] is 1.54 ± 0.018. Further, the “normalized RNA/DNA level without ligand (log10)” value in series [3] turned out to be 1.13 ± 0.016.

Regarding GCUGUCACCGGUGUAUUACCCUAGUGGUCGACCGGUCUGAUGAGUCUCCUAAAAGACGAAACAGC [CCUAAA], the “FACS-Seq fitted mean (log10)” value in series [1] was 0.725 ± 0.1; in series [4], 0.615 ± 0.021. In series [2], the “normalized RNA/DNA level with ligand (log10)” value was found to be 1.95 ± 0.035. In series [3], the “normalized RNA/DNA level without ligand (log10)” value is 1.84 ± 0.019.

As to GCUGUCACCGGUGUAUUACCCUAGUGGUCGACCGGUCUGAUGAGUCUUCUAAAAGACGAAACAGC [UCUAAA], the figures for the “FACS-Seq fitted mean (log10)” value in series [1] and in series [4] were 0.325 ± 0.034 and 0.0897 ± 0.011, respectively. Moreover, the “normalized RNA/DNA level with ligand (log10)” value in series [2] amounted to 1.96 ± 0.035. In series [3], the “normalized RNA/DNA level without ligand (log10)” value amounted to 1.79 ± 0.062.

On to GCUGUCACCGGUGUAUUACCCUAGUGGUCGACCGGUCUGAUGAGUCUUCUAAGAGACGAAACAGC [UCUAAG], for which the “FACS-Seq fitted mean (log10)” value turned out to be 0.59 ± 0.091 in series [1] and 0.678 ± 0.094 in series [4]. In series [2], the “normalized RNA/DNA level with ligand (log10)” value was determined as 1.9502 ± 0.0012. In series [3], the “normalized RNA/DNA level without ligand (log10)” value turned out to be 1.7 ± 0.088.

Consider GCUGUCACCGGUGUAUUACCCUAGUGGUCGACCGGUCUGAUGAGUCUCCGUGUAGACGAAACAGC [CCGUGU], for which the results for the “FACS-Seq fitted mean (log10)” value in series [1] and in series [4] were 0.225 ± 0.038 and 0.616 ± 0.025, respectively. In addition, the “normalized RNA/DNA level with ligand (log10)” value in series [2] came to 1.89 ± 0.12. Besides, the “normalized RNA/DNA level without ligand (log10)” value in series [3] worked out at 1.69 ± 0.017.

Regarding GCUGUCACCGGUGUAUUACCCUAGUGGUCGACCGGUCUGAUGAGUCUCCGUGGAGACGAAACAGC [CCGUGG], the “FACS-Seq fitted mean (log10)” value in series [1] worked out at 0.237 ± 0.043; in series [4], 0.718 ± 0.053. Besides, in series [2], the “normalized RNA/DNA level with ligand (log10)” value stood at 1.823 ± 0.0069. For the same variant, the “normalized RNA/DNA level without ligand (log10)” value in series [3] is 1.23 ± 0.16.

Regarding GCUGUCACCGGUGUAUUACCCUAGUGGUCGACCGGUCUGAUGAGUCUGCGUUGAGACGAAACAGC [GCGUUG], the “FACS-Seq fitted mean (log10)” value came out at 0.142 ± 0.042 in series [1] and 0.658 ± 0.021 in series [4]. Also, in series [2], the “normalized RNA/DNA level with ligand (log10)” value was 1.78 ± 0.034. Further, the “normalized RNA/DNA level without ligand (log10)” value in series [3] is 1.3 ± 0.027.

For the variant GCUGUCACCGGUGUAUUACCCUAGUGGUCGACCGGUCUGAUGAGUCUGCGUUAAGACGAAACAGC [GCGUUA], the “FACS-Seq fitted mean (log10)” value turned out to be 0.535 ± 0.018 in series [1] and 0.594 ± 0.022 in series [4]. The “normalized RNA/DNA level with ligand (log10)” value in series [2] stood at 1.94 ± 0.037. Besides, the “normalized RNA/DNA level without ligand (log10)” value in series [3] is 1.65 ± 0.073.

In the case of GCUGUCACCGGUGUAUUACCCUAGUGGUCGACCGGUCUGAUGAGUCUUCGUGGAGACGAAACAGC [UCGUGG], the entries for the “FACS-Seq fitted mean (log10)” value in series [1] and in series [4] were 0.572 ± 0.0094 and 0.819 ± 0.066, respectively. Further, the “normalized RNA/DNA level with ligand (log10)” value in series [2] is 1.9 ± 0.024. For the same variant, the “normalized RNA/DNA level without ligand (log10)” value in series [3] was determined as 1.593 ± 0.0033.

In the case of GCUGUCACCGGUGUAUUACCCUAGUGGUCGACCGGUCUGAUGAGUCUUCGUGAAGACGAAACAGC [UCGUGA], the “FACS-Seq fitted mean (log10)” value in series [1] is 0.414 ± 0.036; in series [4], 0.578 ± 0.16. In addition, in series [2], the “normalized RNA/DNA level with ligand (log10)” value amounted to 1.84 ± 0.022. In addition, the “normalized RNA/DNA level without ligand (log10)” value in series [3] was 1.27 ± 0.039.

With GCUGUCACCGGUGUAUUACCCUAGUGGUCGACCGGUCUGAUGAGUCUUCGUGCAGACGAAACAGC [UCGUGC], the figures for the “FACS-Seq fitted mean (log10)” value in series [1] and in series [4] were 0.446 ± 0.039 and 0.686 ± 0.013, respectively. For the same variant, the “normalized RNA/DNA level with ligand (log10)” value in series [2] was determined as 1.953 ± 0.016. For the same variant, in series [3], the “normalized RNA/DNA level without ligand (log10)” value was 1.78 ± 0.072.

Regarding GCUGUCACCGGUGUAUUACCCUAGUGGUCGACCGGUCUGAUGAGUCUGCUAAGAGACGAAACAGC [GCUAAG], the figures for the “FACS-Seq fitted mean (log10)” value in series [1] and in series [4] were -0.184 ± 0.019 and 0.199 ± 0.03, respectively. Also, the “normalized RNA/DNA level with ligand (log10)” value in series [2] came to 1.838 ± 0.0086. Besides, the “normalized RNA/DNA level without ligand (log10)” value in series [3] was determined as 1.421 ± 0.0074.

For GCUGUCACCGGUGUAUUACCCUAGUGGUCGACCGGUCUGAUGAGUCUGCUAACAGACGAAACAGC [GCUAAC], the “FACS-Seq fitted mean (log10)” value in series [1] is 0.101 ± 0.032; in series [4], -0.141 ± 0.025. For the same variant, the “normalized RNA/DNA level with ligand (log10)” value in series [2] was determined as 1.93 ± 0.036. In addition, the “normalized RNA/DNA level without ligand (log10)” value in series [3] was determined as 1.66 ± 0.036.
